In one series the target is T1, BglC (Thermobifida fusca, UniProt Q9LAV5).
T1 sequence (Q9LAV5 1-484): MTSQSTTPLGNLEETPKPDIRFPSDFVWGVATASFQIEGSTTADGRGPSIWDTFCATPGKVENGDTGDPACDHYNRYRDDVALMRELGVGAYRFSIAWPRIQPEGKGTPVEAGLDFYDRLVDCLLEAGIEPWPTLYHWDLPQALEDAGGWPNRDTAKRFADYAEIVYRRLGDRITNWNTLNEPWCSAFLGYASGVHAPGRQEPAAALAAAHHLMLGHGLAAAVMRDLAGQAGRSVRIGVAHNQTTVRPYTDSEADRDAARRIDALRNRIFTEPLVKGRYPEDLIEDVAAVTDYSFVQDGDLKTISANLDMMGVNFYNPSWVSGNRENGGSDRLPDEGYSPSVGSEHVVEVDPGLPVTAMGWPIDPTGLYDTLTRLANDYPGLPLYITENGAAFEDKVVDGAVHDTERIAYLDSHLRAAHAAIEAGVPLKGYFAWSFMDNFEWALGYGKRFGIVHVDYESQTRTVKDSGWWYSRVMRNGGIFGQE
Kind of series: 4-nitrophenol release at […] nm, continuous plate assay, non-linear regression. The class given is biochemical.

Substrate in the series “purified protein”: O=[N+]([O-])c1ccc(O[C@@H]2O[C@H](CO)[C@@H](O)[C@H](O)[C@H]2O)cc1
Kind of series: purified protein. To be noted: 100 mM sodium phosphate pH 7.0, 37 °C, 2.63 nM enzyme.

For `O=C1O[C@H](CO)[C@@H](O)[C@H](O)[C@H]1O` [D-glucono-δ-lactone], affinity on BglC was put at a Ki of 6.63 ± 1.3 µM.

B1: BglC (Thermobifida fusca) (protein)
chain: T1 sequence (Q9LAV5 1-484)
As to B1, in the series “purified protein”, the Km (in general, the concentration of substrate that gives half-maximal velocity) stood at 560 ± 10 µM; the kcat (commonly the number of substrate molecules converted per active site and unit of time at saturation) was 48.68 s⁻¹.
